This assay has as its target human β-cardiac myosin subfragment 1 heavy chain (amino acids 1-841) (human, UniProt P12883 1-841). The assay can be described thus: pull-down.

The term stoichiometry N denotes a count of units in the complex or per binding partner.

Chain of human β-cardiac myosin subfragment 1 heavy chain (amino acids 1-841) (P12883 1-841): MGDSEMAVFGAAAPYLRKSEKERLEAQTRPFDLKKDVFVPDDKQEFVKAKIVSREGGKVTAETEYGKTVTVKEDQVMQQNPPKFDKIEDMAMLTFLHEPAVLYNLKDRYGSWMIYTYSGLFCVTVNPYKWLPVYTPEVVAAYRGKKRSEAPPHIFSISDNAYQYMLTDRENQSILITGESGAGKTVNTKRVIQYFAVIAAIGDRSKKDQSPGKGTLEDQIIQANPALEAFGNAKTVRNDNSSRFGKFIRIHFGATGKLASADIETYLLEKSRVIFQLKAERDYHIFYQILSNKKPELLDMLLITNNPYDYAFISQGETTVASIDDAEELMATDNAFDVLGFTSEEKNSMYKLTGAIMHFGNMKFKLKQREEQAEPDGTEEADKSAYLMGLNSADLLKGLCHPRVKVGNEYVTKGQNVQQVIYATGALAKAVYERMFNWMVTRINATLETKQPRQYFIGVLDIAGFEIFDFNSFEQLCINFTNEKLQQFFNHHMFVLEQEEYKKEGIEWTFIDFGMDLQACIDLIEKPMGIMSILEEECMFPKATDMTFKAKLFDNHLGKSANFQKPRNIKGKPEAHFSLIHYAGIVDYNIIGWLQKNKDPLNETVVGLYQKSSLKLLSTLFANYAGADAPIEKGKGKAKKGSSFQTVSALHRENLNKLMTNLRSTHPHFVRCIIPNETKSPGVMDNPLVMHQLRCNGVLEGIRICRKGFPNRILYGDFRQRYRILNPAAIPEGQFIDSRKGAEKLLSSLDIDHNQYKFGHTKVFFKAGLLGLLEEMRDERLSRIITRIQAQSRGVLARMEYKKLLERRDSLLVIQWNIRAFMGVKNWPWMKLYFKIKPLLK

B1: Alexa 488-labeled human ventricular cardiac regulatory light chain (V105C) (natural protein)
chain: MAPKKAKKRAGGANSNVFSMFEQTQIQEFKEAFTIMDQNRDGFIDKNDLRDTFAALGRVNVKNEEIDEMIKEAPGPINFTVFLTMFGEKLKGADPEETILNAFKCFDPEGKGVLKADYVREMLTTQAERFSKEEVDQMFAAFPPDVTGNLDYKNLVHIITHGEEKD
modifications: Alexa Fluor 488 C5 maleimide on the single reactive cysteine at position 105
For the molecule B1, the “stoichiometry N” value came to 1 A488RLC per M2β-S1.

For the origin of these results see doi:10.1101/2020.12.08.416511 (bioRxiv, 2020).
